The values below come from patent EP4509523A1 (Deutsches Primatenzentrum GmbH (DPZ), dated 2025).

For the assay, the target named is T1, D2-KIR3DL2-IgG1-Fc (human, UniProt P43630 220-316, limits assumed).
T1 construct: domain: D2; also called D2 domain of KIR3DL2 as IgG1-Fc protein
Nature of the assay: flow cytometry on HEK-293 cells expressing FLAG-KIR3DX1rep, anti-IgG-Fc detection (Fig. 4C).

T1 sequence (P43630 other isoform, or with tags, fused parts or gaps limits assumed): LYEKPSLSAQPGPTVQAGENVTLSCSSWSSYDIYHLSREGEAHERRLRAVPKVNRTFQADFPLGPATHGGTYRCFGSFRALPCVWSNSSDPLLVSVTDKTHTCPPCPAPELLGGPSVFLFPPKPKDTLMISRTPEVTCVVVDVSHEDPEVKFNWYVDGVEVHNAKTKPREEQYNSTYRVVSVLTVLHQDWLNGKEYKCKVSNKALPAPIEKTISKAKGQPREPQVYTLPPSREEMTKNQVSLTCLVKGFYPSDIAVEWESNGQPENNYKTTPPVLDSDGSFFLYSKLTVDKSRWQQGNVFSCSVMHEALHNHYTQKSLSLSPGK

B1: FLAG-KIR3DX1rep (receptor)
chain: QKICPHAGAQDKFSLSAWPSPVVPLGGRVTLSCHSHLRFVIWTIFQTTGTRSHELHTGLSNNITISPVTPEHAGTYRCVGIYKHASKWSAESNSLKIIVTGLFTKPSISAHPSSLVHAGARVSLRCHSELAFDEFILYKEGHIQHSQQLDQGMEAGIHYVEAVFSMGPVTPAHAGAYRCCGCFSHSRYEWSAPSDPLDIVITGKYKKPSLSTQVDPMMRLGEKLTLFCSSEISFDQYHLFRHGVAHGQWLSGGQRHREAFQANFSVGRATPVPGGTYRCYGSFNDSPYEWSAPSDPLQLYTTGNTKSTPLSFTESTPESDTPRPQGQSSNLHMLTGLSVAIISIGVCLSAFIGFWCYIKYHTTMANTEPTEGQRTDEEEPAAEETQEIIYAQLNHQALSQTGFPPASQCPHYLSEDPSIYITVHQAQAEARAAPSLWHKGHPR
notes: also called FLAG-tagged full-length KIR3DX1-repaired; full-length KIR3DX1 in its repaired form as cell surface receptor
As for B1, the binding result is recorded as “no binding”.
